Paper doi:10.1101/2023.12.20.572361

B1: dystroglycan (mDag1): T315A/T317A (protein)
parent chain: MSVDNWLLHPLWGQTFLLLLSVAVAQAHWPSEPSEAVRDWKNQLEASMHSVLSDFQEAVPTVVGIPDGTAVVGRSFRVSIPTDLIASSGEIIKVSAAGKEALPSWLHWDPHSHILEGLPLDTDKGVHYISVSAARLGANGSHVPQTSSVFSIEVYPEDHNEPQSVRAASSDPGEVVPSACAADEPVTVLTVILDADLTKMTPKQRIDLLNRMQSFSEVELHNMKLVPVVNNRLFDMSAFMAGPGNAKKVVENGALLSWKLGCSLNQNSVPDIRGVETPAREGAMSAQLGYPVVGWHIANKKPTLPKRLRRQIHATPTPVTAIGPPTTAIQEPPSRIVPTPTSPAIAPPTETMAPPVRDPVPGKPTVTIRTRGAIIQTPTLGPIQPTRVSEAGTTVPGQIRPTLTIPGYVEPTAVITPPTTTTKKPRVSTPKPATPSTDSSTTTTRRPTKKPRTPRPVPRVTTKAPITRLETASPPTRIRTTTSGVPRGGEPNQRPELKNHIDRVDAWVGTYFEVKIPSDTFYDNEDTTTDKLKLTLKLREQQLVGEKSWVQFNSNSQLMYGLPDSSHVGKHEYFMHATDKGGLSAVDAFEIHVHKRPQGDKAPARFKARLAGDPAPVVNDIHKKIALVKKLAFAFGDRNCSSITLQNITRGSIVVEWTNNTLPLEPCPKEQIIGLSRRIADENGKPRPAFSNALEPDFKALSIAVTGSGSCRHLQFIPVAPPSPGSSAAPATEVPDRDPEKSSEDDVYLHTVIPAVVVAAILLIAGIIAMICYRKKRKGKLTLEDQATFIKKGVPIIFADELDDSKPPPSSSMPLILQEEKAPLPPPEYPNQSMPETTPLNQDTVGEYTPLRDEDPNAPPYQPPPPFTAPMEGKGSRPKNMTPYRSPPPYVPP
B2: dystroglycan (mDag1): AAV T315A/T317A DAG1 (protein)
parent chain: B1 parent chain
B3: dystroglycan (mDag1): 4X mut. (protein)
parent chain: B1 parent chain
B4: dystroglycan (mDag1): Pax7-Cre 4X mutant (protein)
parent chain: B1 parent chain
B5: dystroglycan (mDag1): AAV 4X mutant DG (protein)
parent chain: B1 parent chain
B6: dystroglycan (mDag1): 4X mut. (Pax7-Cre or AAV-CMV-Cre) (protein)
parent chain: B1 parent chain
B7: dystroglycan (mDag1): T377A/T379A (protein)
parent chain: B1 parent chain
B8: dystroglycan (mDag1): 4X mut. (floxed WT allele removed by Pax7-Cre or AAV-CMV-Cre) (protein)
parent chain: B1 parent chain

Legend:
[1] = EDL CSA from mass and fibre length; conditions: glycan lost; control: WT mice
[2] = EDL eccentric contraction protocol; conditions: glycan lost; control: WT mice
[3] = H&E and immunofluorescence of skeletal muscle; conditions: glycan lost; control: WT mice
[4] = homozygous birth rate from heterozygous crosses; conditions: glycan lost; control: expected Mendelian ratio
[5] = EDL isometric tetanic and specific force in vitro; conditions: glycan lost; control: WT mice
[6] = forelimb grip strength, AAV rescue of DAG1 KO; conditions: glycan lost; control: AAV WT DAG1
[7] = glycan lost; control: WT mice
[8] = forelimb grip strength test; conditions: glycan lost; control: WT mice

Protein	other: susceptibility to contraction-induced injury [2]	other: skeletal muscle histopathology [3]	other: embryonic viability, other: homozygous birth rate [4]	other: muscle contractile force [5]	further results
B1	no change	no change	10%	no change	other: muscle cross-sectional area [1]: changes
B2					other: rescue of grip strength [6]: no change
B3			abolishes		
B4					other: neuromuscular junction integrity [7]: decreases
B5					other: rescue of grip strength [6]: abolishes
B6	increases			decreases	other: grip strength [8]: decreases
B7	no change	no change	22%	no change	other: muscle cross-sectional area [1]: no change
B8		increases			
